{"source": "paper PMC3364950", "about": "“Structure and Functional Analysis of the RNA- and Viral Phosphoprotein-Binding Domain of Respiratory Syncytial Virus M2-1 Protein”", "key": {"[1]": {"target": "RSV phosphoprotein P, full-length (P_(1–241)) (UniProt P12579)", "assay": "GST pull-down", "settings": "parent: est. 100; read off a plot"}, "[2]": {"target": "GST-M2-1 L148A (full-length) (human respiratory syncytial virus (strain Long))", "assay": "pull-down; ~25 µM GST-M2-1 (or GST) on Glutathione-Sepharose 4B beads in PBS with a 3-fold molar excess of purified P, 1 h at 20°C; washed with PBS; SDS-PAGE, Coomassie blue, bands quantified with ImageJ"}, "[3]": {"target": "GST-M2-1 T160D (full-length) (human respiratory syncytial virus (strain Long))", "assay": "pull-down; ~25 µM GST-M2-1 (or GST) on Glutathione-Sepharose 4B beads in PBS with a 3-fold molar excess of purified P, 1 h at 20°C; washed with PBS; SDS-PAGE, Coomassie blue, bands quantified with ImageJ"}, "[4]": {"target": "GST-M2-1 T130D (full-length) (human respiratory syncytial virus (strain Long))", "assay": "pull-down; ~25 µM GST-M2-1 (or GST) on Glutathione-Sepharose 4B beads in PBS with a 3-fold molar excess of purified P, 1 h at 20°C; washed with PBS; SDS-PAGE, Coomassie blue, bands quantified with ImageJ"}, "[5]": {"target": "GST-M2-1 N163D (full-length) (human respiratory syncytial virus (strain Long))", "assay": "pull-down; ~25 µM GST-M2-1 (or GST) on Glutathione-Sepharose 4B beads in PBS with a 3-fold molar excess of purified P, 1 h at 20°C; washed with PBS; SDS-PAGE, Coomassie blue, bands quantified with ImageJ"}, "[6]": {"target": "GST-M2-1 R126D (full-length) (human respiratory syncytial virus (strain Long))", "assay": "pull-down; ~25 µM GST-M2-1 (or GST) on Glutathione-Sepharose 4B beads in PBS with a 3-fold molar excess of purified P, 1 h at 20°C; washed with PBS; SDS-PAGE, Coomassie blue, bands quantified with ImageJ"}, "[7]": {"target": "T1, M2-1(58-177) core domain (human respiratory syncytial virus (hRSV, strain Long per Fig S7)) (UniProt P04545)", "T1 sequence": "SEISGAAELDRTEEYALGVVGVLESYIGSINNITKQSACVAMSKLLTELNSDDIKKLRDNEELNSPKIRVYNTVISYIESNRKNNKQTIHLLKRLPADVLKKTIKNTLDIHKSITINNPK", "assay": "NMR titration", "settings": "NMR: 50-60 µM protein, 293 K, 14.1 T, 1:1 model, buffer/salt/pH not in material; EMSA: 100 µM GST fusion eluted with GSH, ~50 µM tRNA, 1 h room temperature …"}, "[8]": {"target": "RSV phosphoprotein P, full-length (P_(1–241)) (human respiratory syncytial virus (strain Long)) (UniProt P12579)", "assay": "ITC; M2-1_(58–177) (335 µM, 20 injections of 2 µL) injected into P (33 µM) in the cell; 1× PBS; 20°C"}, "[9]": {"target": "T2, M2-1(58-177) core domain (human respiratory syncytial virus …, UniProt P04545 58-177)", "T2 sequence": "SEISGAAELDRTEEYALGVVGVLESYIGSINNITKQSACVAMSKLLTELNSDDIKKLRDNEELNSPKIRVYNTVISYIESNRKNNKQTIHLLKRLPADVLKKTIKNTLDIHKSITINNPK", "assay": "NMR titration; NMR: 50-60 µM protein, 293 K, 14.1 T, 1:1 model, buffer/salt/pH not in material; EMSA: 100 µM GST fusion eluted with GSH, ~50 µM tRNA, 1 h room temperature, 1.5% agarose, 1x Tris-Glycine, 4°C", "settings": "protein: recombinant, tags: N-terminal Gly-Ser left after thrombin cleavage of GST"}, "[10]": {"settings": "predicted hairpin, poly-U loop, 2-3 bp stem"}}}
{"molecule": "GST-M2-1 (full-length M2-1 fused to GST), WT R151D", "values": [{"measurement": "percent of parent", "setting": "[1]", "result": 44, "unit": "% WT"}]}
{"molecule": "GST-M2-1 (full-length M2-1 fused to GST), WT K150D", "values": [{"measurement": "percent of parent", "setting": "[1]", "result": 63, "unit": "% WT"}]}
{"molecule": "RSV phosphoprotein P, full-length (P_(1–241)) (from UniProt P12579 1-241) (natural protein)", "values": [{"measurement": "decrease in P binding against WT", "setting": "[2]", "result": "> 50", "unit": "%"}, {"measurement": "decrease in P binding against WT", "setting": "[3]", "result": "> 50", "unit": "%"}, {"measurement": "decrease in P binding against WT", "setting": "[4]", "result": "> 50", "unit": "%"}, {"measurement": "decrease in P binding against WT", "setting": "[5]", "result": "> 50", "unit": "%"}, {"measurement": "decrease in P binding against WT", "setting": "[6]", "result": "> 50", "unit": "%"}]}
{"molecule": "AGUUAUAUAAAA / UUUUAUAUAACU [GE_F-ds]", "values": [{"measurement": "Kd", "setting": "[7]", "result": 4.5, "unit": "µM"}]}
{"molecule": "GST-M2-1 (full-length M2-1 fused to GST), WT K92D", "values": [{"measurement": "percent of parent", "setting": "[1]", "result": 54, "unit": "% WT"}]}
{"molecule": "RSV M2-1_(58–177) core domain (domain or fragment)", "values": [{"measurement": "Kd", "setting": "[8]", "result": 3, "unit": "µM"}, {"measurement": "stoichiometry N", "setting": "[8]", "result": 1}]}
{"molecule": "CGCAUUUUUUCGCGU (ssRNA)", "note": "[leader-neg]", "values": [{"measurement": "Kd", "setting": "[9]; [10]", "result": "75 ± 15", "unit": "µM"}]}
{"molecule": "ACGCGAAAAAAU (ssRNA)", "note": "[leader-pos]", "values": [{"measurement": "Kd", "setting": "[9]; partial self-association (two G-C and U-A pairs) seen by NMR", "result": "2.5 ± 1.5", "unit": "µM"}]}
{"molecule": "TTTTATATAACT (ssDNA)", "note": "[GE_F-DNA]", "values": [{"measurement": "Kd", "setting": "[9]", "result": "250 ± 70", "unit": "µM"}]}
{"molecule": "GCGCUUUUUUAAGCGC (structured_RNA)", "note": "[UGA2]", "values": [{"measurement": "Kd", "setting": "[9]; hairpin, 5 bp, U-stretch", "result": "60 ± 10", "unit": "µM"}]}
{"molecule": "CCCAUUUUUUUGGUU (ssRNA)", "note": "[long U-rich]", "values": [{"measurement": "Kd", "setting": "[9]; [10]", "result": "125 ± 35", "unit": "µM"}]}
{"molecule": "CCAAAAAAAU (ssRNA)", "note": "[short A-rich (short polyA)]", "values": [{"measurement": "Kd", "setting": "[9]", "result": "22 ± 6", "unit": "µM"}]}
{"molecule": "UAUUUGCCCC (ssRNA)", "note": "[GS-neg]", "values": [{"measurement": "Kd", "setting": "[9]", "result": "110 ± 15", "unit": "µM"}]}
{"molecule": "UUUUUAAUUAACU (ssRNA)", "note": "[GE_SH-neg]", "values": [{"measurement": "Kd", "setting": "[9]", "result": "75 ± 15", "unit": "µM"}]}
{"molecule": "UUUUAUAUAACU (ssRNA)", "note": "[GE_F-neg]", "values": [{"measurement": "Kd", "setting": "[9]", "result": "85 ± 25", "unit": "µM"}]}
